For twelve sequences, Kd results are on record in the Immune Epitope Database (IEDB).

Holding throughout (experiment): IEDB peptide-MHC binding, purified MHC/competitive/radioactivity; filed as Kd, often an IC50 or EC50 that approximates it; ≥ and ≤ were set here for values at or beyond the usual limits of such assays
Assay [1] deals with HLA-B*40:01.
The target of assay [2] is HLA-B*40:02.
Assay [3] has as its target HLA-B*44:03.
Assay [4] concerns the target HLA-B*18:01.
The target in assay [5] is HLA-B*45:01.
Assay [6] concerns the target HLA-B*44:02.
Where [7] appears, read: source organism: SARS coronavirus Tor2.
The mark [8] stands for this setting: source organism: Mammarenavirus machupoense.
Where [9] appears, read: source organism: Mammarenavirus choriomeningitidis.
[10] abbreviates: source organism: Mammarenavirus juninense.
Setting [11] is: source organism: Mammarenavirus brazilense.
The mark [12] stands for this setting: source organism: Mammarenavirus lassaense.

For orientation: Kd means a measure of binding affinity in units of concentration. Turning to SAFFGMSRIG, the dissociation constant (Kd) in assay [1] (setting [7]) was no less than 44900 nM; in assay [2] (setting [7]), no less than 70800 nM; in assay [3] (setting [7]), 8770 nM; in assay [4] (setting [7]), no less than 70500 nM; in assay [5] (setting [7]) it was no less than 26400 nM; in assay [6] (setting [7]) it was 18400 nM.
As for EELSLMYETL, the Kd in assay [1] (setting [8]) was 10400 nM; in assay [2] (setting [8]) it was 110 nM; in assay [3] (setting [8]) it was 1320 nM; in assay [4] (setting [8]) it was 2460 nM; in assay [5] (setting [8]) it was 952 nM; in assay [6] (setting [8]) it was 1540 nM.
For GEILLLEWL, the Kd in assay [1] (setting [7]) worked out at 0.363 nM; in assay [2] (setting [7]) it was 19500 nM; in assay [3] (setting [7]) it was 1.51 nM; in assay [4] (setting [7]) it was 4960 nM; in assay [5] (setting [7]), 843 nM; in assay [6] (setting [7]) it was 9.44 nM.
As to SDAALHNMI, the Kd in assay [1] (setting [9]) was no less than 35800 nM; in assay [2] (setting [9]) it was 1930 nM; in assay [3] (setting [9]), no less than 31700 nM; in assay [4] (setting [9]), no less than 77500 nM; in assay [5] (setting [9]), 2120 nM; in assay [6] (setting [9]), 7070 nM.
VDYGVRFFFY: the Kd in assay [1] (setting [7]) was 16800 nM; in assay [2] (setting [7]) it was no less than 30400 nM; in assay [3] (setting [7]), 789 nM; in assay [4] (setting [7]), no less than 38100 nM; in assay [5] (setting [7]), 451 nM; in assay [6] (setting [7]), 823 nM.
With KEFTRPLISG, the Kd in assay [1] (setting [7]) was 1600 nM; in assay [2] (setting [7]), 19500 nM; in assay [4] (setting [7]), no less than 70500 nM; in assay [5] (setting [7]), 2640 nM; in assay [6] (setting [7]), 10100 nM.
Regarding LDLVLLNLL, the dissociation constant (Kd) in assay [1] (setting [10]) is 18700 nM; in assay [2] (setting [10]) it was 48.5 nM; in assay [3] (setting [10]), no less than 45400 nM; in assay [4] (setting [10]) it was no less than 43600 nM; in assay [5] (setting [10]), 12500 nM; in assay [6] (setting [10]), no less than 77900 nM.
For the sequence SEEVVENPTI, the Kd in assay [1] (setting [7]) is 1050 nM; in assay [2] (setting [7]), 402 nM; in assay [3] (setting [7]), 1040 nM; in assay [4] (setting [7]), no less than 48700 nM; in assay [5] (setting [7]), 277 nM; in assay [6] (setting [7]) it was 471 nM.
In the case of IDPLIVSTS, the Kd is no less than 48400 nM in assay [1] (setting [11]); 4610 nM in assay [2] (setting [11]); 18300 nM in assay [3] (setting [11]); no less than 77500 nM in assay [4] (setting [11]); 18900 nM in assay [5] (setting [11]); no less than 77900 nM in assay [6] (setting [11]).
As for DEILLDGGAS, the Kd in assay [1] (setting [12]) was no less than 42900 nM; in assay [2] (setting [12]), 902 nM; in assay [3] (setting [12]), no less than 25900 nM; in assay [4] (setting [12]) it was 70 nM; in assay [5] (setting [12]), 5950 nM; in assay [6] (setting [12]) it was no less than 10000 nM.
In the case of IEELFYSYAT, the Kd in assay [1] (setting [7]) was found to be 1520 nM; in assay [2] (setting [7]) it was 51.9 nM; in assay [3] (setting [7]), 205 nM; in assay [4] (setting [7]), 786 nM; in assay [5] (setting [7]), 10.6 nM; in assay [6] (setting [7]) it was 326 nM.
For DEWSVATFY, the equilibrium dissociation constant (Kd) was no less than 76200 nM in assay [1] (setting [7]); no less than 77300 nM in assay [2] (setting [7]); 10.4 nM in assay [3] (setting [7]); 2.82 nM in assay [4] (setting [7]); no less than 77800 nM in assay [5] (setting [7]); 316 nM in assay [6] (setting [7]).
